# Reference: patent publication US20240247080A1, “GLP1/GIP/NPY2 RECEPTOR TRIPLE AGONISTS” (Boehringer Ingelheim International GmbH, priority 2022, published 2024)
# Numbering of substitutions follows the chain as printed. Starred links: 1 amine or outer side, 2 acyl side, 3 side chain; linkers in the order of their positions; H or OH if unused. Non-standard residues stand in square brackets, D forms with d. Groups on a side chain read outwards from the residue. No end group written: not given here. *: point of attachment. C20 diacid = O=C(O)CCCCCCCCCCCCCCCCCCC(=O)*; γGlu = O=C(O)[C@H](CCC(=O)[*:2])N[*:1]; AEEA = NCCOCCOCC(=O)O; Aib = CC(C)(N)C(=O)O
# T1: GIP receptor (human (printed as hGIPR), UniProt P48546 22-466)
# T1 sequence (looked up): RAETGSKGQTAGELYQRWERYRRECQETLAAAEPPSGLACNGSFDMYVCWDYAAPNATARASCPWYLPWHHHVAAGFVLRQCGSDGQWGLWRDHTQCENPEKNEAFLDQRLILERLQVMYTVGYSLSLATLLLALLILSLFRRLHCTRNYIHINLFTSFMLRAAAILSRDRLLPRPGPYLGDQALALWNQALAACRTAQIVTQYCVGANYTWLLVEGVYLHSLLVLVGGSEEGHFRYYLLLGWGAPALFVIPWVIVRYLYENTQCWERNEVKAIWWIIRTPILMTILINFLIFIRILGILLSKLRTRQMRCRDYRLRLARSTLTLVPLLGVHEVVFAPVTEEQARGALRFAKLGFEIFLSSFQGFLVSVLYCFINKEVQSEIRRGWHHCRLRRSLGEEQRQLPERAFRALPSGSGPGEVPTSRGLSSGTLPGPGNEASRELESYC
# T2: NPY2 receptor (human (printed as hNPY2R), UniProt P49146 1-381)
# T2 sequence (looked up): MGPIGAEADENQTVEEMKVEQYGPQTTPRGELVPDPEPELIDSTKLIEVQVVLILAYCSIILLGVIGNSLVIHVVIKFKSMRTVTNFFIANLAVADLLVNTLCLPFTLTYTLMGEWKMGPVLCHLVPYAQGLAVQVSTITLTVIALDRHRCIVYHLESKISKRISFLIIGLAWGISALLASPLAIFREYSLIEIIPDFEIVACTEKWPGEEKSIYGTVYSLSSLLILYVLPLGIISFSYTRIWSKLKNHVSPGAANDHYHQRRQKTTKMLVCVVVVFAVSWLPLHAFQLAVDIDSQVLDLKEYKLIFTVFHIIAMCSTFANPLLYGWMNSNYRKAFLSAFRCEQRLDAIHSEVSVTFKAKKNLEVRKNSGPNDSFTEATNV
# B1: Compound 213 (peptide)
# peptide: YXEGTFTSDYSIXLEKQAQXAFVEWLIKGGPSSGASLRHYYXWLTRQRY
# modifications: Aib at 2, 13, 20, 42; K28 side chain carries C20DA-gGlu-gGlu-gGlu-gGlu-gGlu-gGlu-eLys; C-terminal amide
# B2: Compound 220 (peptide)
# peptide: B1 peptide with E24Q, S33E, X42N
# modifications: Aib at 2, 13, 20; K28 side chain carries C20DA-gGlu-gGlu-gGlu-gGlu-gGlu-gGlu-eLys; C-terminal amide
# B3: Compound 221 (peptide)
# peptide: B1 peptide with X42N
# modifications: Aib at 2, 13, 20; K28 side chain carries C20DA-gGlu-gGlu-gGlu-gGlu-gGlu-gGlu-eLys; C-terminal amide
# B4: Compound 211 (peptide)
# peptide: B1 peptide with X20D, X42N
# modifications: Aib at 2, 13; D-Asp at 20; K28 side chain carries C20DA-gGlu-gGlu-gGlu-gGlu-gGlu-gGlu-eLys; C-terminal amide
# B5: Compound 216 (peptide)
# peptide: B1 peptide with X20R, X42N
# modifications: Aib at 2, 13; D-Arg at 20; K28 side chain carries C20DA-gGlu-gGlu-gGlu-gGlu-gGlu-gGlu-eLys; C-terminal amide
# B6: Compound 222 (peptide)
# peptide: B1 peptide with S33E, X42N
# modifications: Aib at 2, 13, 20; NMeQ (N-methyl-L-glutamine) at 47; K28 side chain carries C20DA-gGlu-gGlu-gGlu-gGlu-gGlu-gGlu-eLys; C-terminal amide
# B7: Compound 217 (peptide)
# peptide: B1 peptide with S33E, G34Y, A35V, X42N
# modifications: Aib at 2, 13, 20; K28 side chain carries C20DA-gGlu-gGlu-gGlu-gGlu-gGlu-gGlu-eLys; C-terminal amide
# Biological target: GLP-1 receptor (human (printed as hGLP1R), UniProt P43220 24-463)
# Test: cell-based or functional assay
Binder,EC50 hGLP1R 0.5% hP (CreLuc),EC50 hGLP1R 100% hP (CreLuc)
B1,0.16 nM,3.03 nM
B2,0.17 nM,5.28 nM
B3,0.11 nM,2.23 nM
B4,0.74 nM,25.9 nM
B5,0.31 nM,10.6 nM
B6,0.24 nM,4.43 nM
B7,1.34 nM,17.2 nM
Y[Aib]EGTFTSDYSI[Aib]LEKQAQ[Aib]EFVQWLIKGGPSEGASLRHYYNWLTRQRY-NH2 (not fully specified (residue 28); also: TFA salt) [Compound 207],0.36 nM,12.7 nM
Y[Aib]EGTFTSDYSI[Aib]LEKQAQ[Aib]AFVEWLIKGGPSSGVSLRHYYNWLTRQRY-NH2 (not fully specified (residue 28); also: TFA salt) [Compound 212],0.11 nM,3.69 nM
Y[Aib]EGTFTSDYSI[Aib]LEKQAQ[Aib]EFVEWLIK([AEEA-AEEA-γGlu-γGlu-γGlu-γGlu-C20 diacid])GGPSSGASLRHYYNWLTRQRY-NH2 (also: TFA salt) [Compound 205],0.44 nM,12.3 nM
Y[Aib]EGTFTSDYSI[Aib]LEKQAQ[Aib]AFVEWLIKGGPEEPASLRHYYNWLTRQRY-NH2 (not fully specified (residue 28); also: TFA salt) [Compound 206],0.43 nM,17.2 nM

# Biological target: T1, GIP receptor
# Test: cell-based or functional assay
Binder,EC50 hGIPR 0.5% hP (CreLuc),EC50 hGIPR 100% hP (CreLuc)
B1,0.34 nM,1.53 nM
B2,0.29 nM,1.83 nM
B3,0.14 nM,0.92 nM
B4,0.85 nM,9.79 nM
B5,9.45 nM,64.2 nM
B6,0.19 nM,1.85 nM
B7,0.74 nM,8.85 nM
Y[Aib]EGTFTSDYSI[Aib]LEKQAQ[Aib]EFVQWLIKGGPSEGASLRHYYNWLTRQRY-NH2 (not fully specified (residue 28); also: TFA salt) [Compound 207],0.63 nM,1.66 nM
Y[Aib]EGTFTSDYSI[Aib]LEKQAQ[Aib]AFVEWLIKGGPSSGVSLRHYYNWLTRQRY-NH2 (not fully specified (residue 28); also: TFA salt) [Compound 212],0.24 nM,1.83 nM
Y[Aib]EGTFTSDYSI[Aib]LEKQAQ[Aib]EFVEWLIK([AEEA-AEEA-γGlu-γGlu-γGlu-γGlu-C20 diacid])GGPSSGASLRHYYNWLTRQRY-NH2 (also: TFA salt) [Compound 205],0.33 nM,1.87 nM
Y[Aib]EGTFTSDYSI[Aib]LEKQAQ[Aib]AFVEWLIKGGPEEPASLRHYYNWLTRQRY-NH2 (not fully specified (residue 28); also: TFA salt) [Compound 206],0.25 nM,2.61 nM

# Biological target: T2, NPY2 receptor
# Test: cell-based or functional assay
Binder,EC50 hNPY2R 0.5% hP (CreLuc),EC50 hNPY2R 100% hP (CreLuc)
B1,> 100 nM,> 1000 nM
B2,10.2 nM,42.6 nM
B3,12.4 nM,49.3 nM
B4,11.2 nM,56.3 nM
B5,2.81 nM,16.8 nM
B6,13.3 nM,41.6 nM
B7,18.6 nM,35.4 nM
Y[Aib]EGTFTSDYSI[Aib]LEKQAQ[Aib]EFVQWLIKGGPSEGASLRHYYNWLTRQRY-NH2 (not fully specified (residue 28); also: TFA salt) [Compound 207],11 nM,50.3 nM
Y[Aib]EGTFTSDYSI[Aib]LEKQAQ[Aib]AFVEWLIKGGPSSGVSLRHYYNWLTRQRY-NH2 (not fully specified (residue 28); also: TFA salt) [Compound 212],13.5 nM,122 nM
Y[Aib]EGTFTSDYSI[Aib]LEKQAQ[Aib]EFVEWLIK([AEEA-AEEA-γGlu-γGlu-γGlu-γGlu-C20 diacid])GGPSSGASLRHYYNWLTRQRY-NH2 (also: TFA salt) [Compound 205],10.6 nM,37.7 nM
Y[Aib]EGTFTSDYSI[Aib]LEKQAQ[Aib]AFVEWLIKGGPEEPASLRHYYNWLTRQRY-NH2 (not fully specified (residue 28); also: TFA salt) [Compound 206],13.4 nM,61.7 nM
